Experimental data published in US20100062978A1 (UNIVERSITY OF TOKYO, published 2010).

Experiments:
[1] = molecular target: T1, wild-type human EGFR (erbB1) (human, UniProt P00533 25-1210); experiment: co-immunoprecipitation with anti-EGFR antibody from HEK293 lysate, immunoblot
T1 construct: whole, on cells; precipitated from cell lysates with anti-EGFR antibody; also called HER1; wild-type EGFR
Method: Before EGF treatment, Saos-2 cell or HEK293 cell was kept serum deficiency state for 24 hours.

[2] = molecular target: T2, GST-ERK2 fusion protein (glutathione S-transferase fused with human ERK2, from pGEX-4T-1) (human, UniProt P28482 1-360); experiment: GST-ERK2 pull-down from HEK293 lysate, immunoblot
T2 construct: Expressed in E. coli BL21 and immobilised on Glutathione Sepharose beads for the pull-down; not shown: glutathione S-transferase (GST) encoded by the vector pGEX-4T-1
T2 sequence (P28482 whole entry, the tested form may be a part): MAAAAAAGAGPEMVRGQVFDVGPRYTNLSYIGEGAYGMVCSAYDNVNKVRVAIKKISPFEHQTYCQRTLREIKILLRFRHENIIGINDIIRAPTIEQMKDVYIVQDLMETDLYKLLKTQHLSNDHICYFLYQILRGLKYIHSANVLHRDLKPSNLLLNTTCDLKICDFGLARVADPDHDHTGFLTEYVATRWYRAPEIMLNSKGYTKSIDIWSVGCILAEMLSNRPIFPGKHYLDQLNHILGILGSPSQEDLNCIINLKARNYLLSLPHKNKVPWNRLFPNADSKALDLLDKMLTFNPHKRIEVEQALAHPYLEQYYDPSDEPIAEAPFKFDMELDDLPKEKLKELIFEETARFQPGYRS

binding result [1]	binding result [2]	Binder
no binding	–	186-328 variant of human SNT-2 (PTB-domain-deleted), C-terminal FLAG-tag (other, not shown: C-terminal FLAG-tag) DEQSHTYVNTPASEDDHRRGRHCLQPLPEGQAPFLPQARGPDQRDPQVFLQPGQVKFVLGPTPARRHMVKCQGLCPSLHDPPHHNNNNEAPSECPAQPKCTYENVTGGLWRGAGWRLSPEEPGWNGLAHRRAALLHYENLPPL
–	no binding	1-236 variant of human SNT-2, C-terminal FLAG-tag (other, C-terminal-cut-off variant expressed in HEK293 cells; not shown: C-terminal FLAG-tag) MGSCCSCLNRDSVPDNHPTKFKVTNVDDEGVELGSGVMELTQSELVLHLHRREAVRWPYLCLRRYGYDSNLFSFESGRRCQTGQGIFAFKCSRAEEIFNLLQDLMQCNSINVMEEPVIITRNSHPAELDLPRAPQPPNALGYTVSSFSNGCPGEGPRFSAPRRLSTSSLRHPSLGEESTHALIAPDEQSHTYVNTPASEDDHRRGRHCLQPLPEGQAPFLPQARGPDQRDPQVFLQ
